First the molecules themselves.
B1: FVM04 (antibody, V domains shown)
VH: EVQLVQSGGGLVQPGGSMRLSCEASGLSLSDYFMHWVRQAQGKGLEWIGLIQTKAFTYKTEYPAAVKGRFTISRDDSKNTLYLQMSSLKPEDTALYYCIAVTPDFYYWGQGVLVTVSS
VL: DVVMTQSPSFLSASVGDRVTITCRASQDITINLNWFQHKPGKAPKRLIYVASRLERGVPSRFSGSGSGTEFTLTISSLQPEDFATYYCQQYNNYPLTFGPGTKLDIKR
B2: FVM10 (antibody, V domains shown)
VH: QVQLVQSGAEVKRPGESLKISCQTSGYSFTDSWVAWVRQMPGKGLEWLGSIYPGDSETKYNPSFQGHVTISADKSISTAYLQWSSLKASDTATYYCAKGSETWGQGLRVTVSS
VL: QAGLTQPASLSASPGASASLTCTFSGGINVAGYNILWYQQKPGSPPRYLLRYKSDSDKDQGSGVPSRFSGSKDASANTGILRISGLQSEDEADYYCAIGHSSGWIFGGGTRLTVL
B3: FVM39 (antibody, V domains shown)
VH: EVQLVQSGAEVKRPGESLRISCKTSGYSFTDSWISWVRQMPGKGLEWLGSIYPGDSETKYNPSFQGHVTISADKSVTTTYLKWSSLKASDTATYYCVKGSETWGQGVLVTVSS
VL: B2 VL with A2P, G3V, P42A, D57T
B4: FVM07 (antibody, V domains shown)
VH: EVQLVQSGAEVKRPGESLTISCKTSGYSFTDSWIGWVRQMPGKGLEWMGSIYPGDSDTKYNPSFQGHVTISADKSISTTYLQWSSLKASDTATYYCVAREAYWGQGVLVTVSS
VL: B2 VL with A2P, G3V, N34H, L36F, D59G, W104V, I105L
B5: FVM08 (antibody, V domains shown)
VH: EVQLVQSGAEVKRPGESLTISCKTSGYSFTDSWVAWVRQMPGKGLEWMGSIYPGDSDTRYNPSFEGQVTISADKSISTTYLQWSSLRASDTATYYCVKGADDWGQGVLVTVSS
VL: B2 VL with A2P, G3V, P42A, D57T
B6: FVM12 (antibody, V domains shown)
VH: B3 VH with R19T, G26E, D31G, L48M, E57D, K59R, N61S, H67Q
VL: B2 VL with A2P, G3V, P14L, Y48F, K58N, D59V, R67H, A76T, I105V
B7: FVM38 (antibody, V domains shown)
VH: B3 VH with E1Q, R19T, S35G, L48M, G49A, G54D
VL: B2 VL with A2P, G3V, P42A, D57T
B8: FVM22 (antibody, V domains shown)
VH: B2 VH with Q1E, K19T, Q23K, L107V, R108L
VL: B2 VL with Q1S, A2S, P42A, D57T
B9: FVM06 (antibody, V domains shown)
VH: EVQLVQSGAEVKRPGESLTISCKTSGYSFTNYWISWVRQMPGEGLEWMGAIDPSDSDTRYSPSFQGQVTMSADKSITTAYLQWSSLKASDTATYYCVKGSETWGQGVLVTVSS
VL: B2 VL with A2P, G3V, P42A, D57T
B10: FVM14 (antibody, V domains shown)
VH: B3 VH with R19K, K23Q, D31S, S32T, S35T, V76I, T77S, K82Q, S84N
VL: B2 VL with G3V, L4V, P42A, D57T
B11: FVM35 (antibody, V domains shown)
VH: B3 VH with R19T, D31S, S32Y, S35T
VL: B2 VL with A2P, G3V, P42A, D57T
B12: FVM16 (antibody, V domains shown)
VH: B3 VH with R19K, K23R, D31S, S32T, S35N
VL: B2 VL with Q1K, A2P, G3M, P42A, D57T, I105V
B13: FVM41 (antibody, V domains shown)
VH: B3 VH with R19K, S32T, L48M
VL: B2 VL with Q1E, A2T, G3V, L4V, P42A, D57T, W104V, I105L
B14: FVM15 (antibody, V domains shown)
VH: B3 VH with E1Q, S28T, S32Y, S35A, L48M, S85R
VL: B2 VL with A2P, G3V, P42A, D57T
B15: FVM26 (antibody, V domains shown)
VH: B3 VH with E1Q, S28T, S32Y, S35A, L48M, S85R
VL: B2 VL with A2P, G3V, P42A, D57T
B16: FVM40 (antibody, V domains shown)
VH: B3 VH with R19T, L48M
VL: B2 VL with A2P, G3M, P42A, D57T
B17: FVM37 (antibody, V domains shown)
VH: B3 VH with E1Q, R19K, S28R, D31S
VL: B2 VL with Q1S, A2S, G3E, P42A, D57T
B18: FVM33 (antibody, V domains shown)
VH: B3 VH with E1Q, R19K, G26R, D31S, S35G, E57D, K59R
VL: B2 VL with A2P, G3V, P42A, D57T
B19: FVM31 (antibody, V domains shown)
VH: B3 VH with E1Q, R19T, I34V, S35A, E57D, T58A, K59R, K74T
VL: B2 VL with Q1K, A2P, G3M, P42A, D57T
B20: FVM27 (antibody, V domains shown)
VH: B9 VH with T19K, T30A, N31S, Y32S, E43K, D57A, M70I, T77S
VL: B2 VL with A2P, G3V, P42A, D57T, T113I
B21: FVM11 (antibody, V domains shown)
VH: B3 VH with R19T, I34V, S35A
VL: B2 VL with Q1N, A2F, G3M, P42A, D57T
B22: FVM34 (antibody, V domains shown)
VH: B3 VH with Q6E, R19T, I34V, L48M
VL: B2 VL with A2P, G3V, N34Y, L36H, D59H, I105V
B23: FVM05 (antibody, V domains shown)
VH: QVQLQESGPGLVKPSETLSLTCAVSGFSISSGYGWSWIRQPPGKGLEWIGYIGGSSGSTSYNPSLKSRVTLSADTSKNQFSLKLSSVTAADTAVYYCARRYSSYRSWFDVWGPGVLVTVSS
VL: SSGLTQPRSVSVSPGQTARITCGGDNIGSKSVHWYQQKPPQAPVLVIYADSERPSGIPERFSGSNSGNTATLTISGVEAGDEADYYCQVWDSSSDHWVFGGGTRLTVL
B24: FVM29 (antibody, V domains shown)
VH: B9 VH with T19K, K23Q, Y27N, Y32N, E43K, D57E, M70I, T77N
VL: B2 VL with A2P, G3V, P42A, D57T

Where a chain is given by its changes, count along the chain named.

One test concerns the target T1, EBOV VLP (Ebola virus (EBOV), UniProt Q05320 33-676).
T1 sequence: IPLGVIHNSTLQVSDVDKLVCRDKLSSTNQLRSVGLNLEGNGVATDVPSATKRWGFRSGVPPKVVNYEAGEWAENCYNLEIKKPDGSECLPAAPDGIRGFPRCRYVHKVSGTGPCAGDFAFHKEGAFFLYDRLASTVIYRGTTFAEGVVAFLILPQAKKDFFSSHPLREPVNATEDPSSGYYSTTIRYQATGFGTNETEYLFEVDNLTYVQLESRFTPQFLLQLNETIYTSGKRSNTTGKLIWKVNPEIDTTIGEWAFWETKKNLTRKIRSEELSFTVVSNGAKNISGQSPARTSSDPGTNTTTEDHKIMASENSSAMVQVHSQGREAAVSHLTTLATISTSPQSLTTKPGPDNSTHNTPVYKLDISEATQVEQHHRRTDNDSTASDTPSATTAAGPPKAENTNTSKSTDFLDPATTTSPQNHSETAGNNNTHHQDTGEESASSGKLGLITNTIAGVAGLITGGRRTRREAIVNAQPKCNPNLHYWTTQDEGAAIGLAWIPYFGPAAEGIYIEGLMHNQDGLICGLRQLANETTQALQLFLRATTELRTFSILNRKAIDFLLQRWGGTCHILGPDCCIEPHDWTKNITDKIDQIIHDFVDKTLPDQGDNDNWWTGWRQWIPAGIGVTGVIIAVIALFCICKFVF
Briefly: ELISA. In general terms: ELISA stands for enzyme-linked immunosorbent assay.
In general, EC50 refers to the concentration at which the effect is half-maximal. Read a high EC50 as weaker potency. Consider B1, for which the concentration giving a half-maximal response (EC50) came out at 0.306 nM.
As to B2, it took 0.653 nM to reach a half-maximal effect (EC50).
B3: the EC50 amounted to 0.08 nM.
As to B4, the midpoint of the response, the EC50, lay at 1.71 nM.
Still for that read-out and setting: the figure for B5 is 0.193 nM; for B6 it is 0.622 nM; for B7 it is 0.253 nM.
For the molecule B8, a half-maximal effect (EC50) was put at 0.253 nM.
B9 registered an EC50 of 0.215 nM.
Same read-out and setting: in the case of B10 it was 0.78 nM.
As to B11, the concentration giving a half-maximal response (EC50) was 0.233 nM.
Still for that read-out and setting: the figure for B12 is 0.655 nM; for B13 it is 0.36 nM.
The molecule B14 showed an EC50 of 0.151 nM.
On the same count and under the same terms, in the case of B15 it was 0.26 nM; in that of B16, 0.173 nM.
Consider B17, for which it took 0.227 nM to reach a half-maximal effect (EC50).
B18: the response was half-maximal at 0.173 nM (EC50).
The same measure, in the same setting: in the case of B19 it was 0.32 nM; in that of B20, 0.233 nM; in that of B21, 0.219 nM.
Same read-out and setting: the figure for B22 is 0.193 nM; for B23 it is 18 nM.

A further test addresses T2, SUDV VLP (Sudan virus (SUDV), UniProt Q66814 33-676).
T2 sequence: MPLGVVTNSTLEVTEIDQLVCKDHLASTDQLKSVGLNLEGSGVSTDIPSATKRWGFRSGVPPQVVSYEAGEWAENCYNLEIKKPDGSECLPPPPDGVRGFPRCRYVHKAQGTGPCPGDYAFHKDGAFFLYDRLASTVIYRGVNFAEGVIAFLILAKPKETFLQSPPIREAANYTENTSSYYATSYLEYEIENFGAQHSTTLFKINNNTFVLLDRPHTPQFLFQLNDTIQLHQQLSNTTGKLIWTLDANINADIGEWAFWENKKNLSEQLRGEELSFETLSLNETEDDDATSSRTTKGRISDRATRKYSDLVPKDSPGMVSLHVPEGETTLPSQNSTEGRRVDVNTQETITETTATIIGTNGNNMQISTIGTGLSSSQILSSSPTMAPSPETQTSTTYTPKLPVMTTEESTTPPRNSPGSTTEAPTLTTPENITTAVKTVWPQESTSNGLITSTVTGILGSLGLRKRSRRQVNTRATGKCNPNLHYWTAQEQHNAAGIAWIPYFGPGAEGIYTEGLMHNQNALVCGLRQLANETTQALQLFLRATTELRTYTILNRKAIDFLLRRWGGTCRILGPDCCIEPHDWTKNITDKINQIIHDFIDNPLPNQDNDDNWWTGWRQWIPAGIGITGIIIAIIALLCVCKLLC
Briefly: ELISA.
Turning to B1, the EC50 was found to be 0.193 nM.
In turn, B24 returned an EC50 of 24.1 nM.
For the molecule B2, the midpoint of the response, the EC50, lay at 0.687 nM.
On the same count and under the same terms, in the case of B3 it was 0.047 nM; in that of B4, 18.2 nM.
Still for that read-out and setting: in the case of B5 it was 0.135 nM.
Still for that read-out and setting: in the case of B6 it was 0.673 nM; in that of B7, 0.147 nM; in that of B8, 0.173 nM.
On to B9, for which the concentration giving a half-maximal response (EC50) came out at 0.213 nM.
On to B10, for which a half-maximal effect (EC50) was put at 0.157 nM.
Molecule B11 had an EC50 of 0.14 nM.
Molecule B12 yielded an EC50 of 1.43 nM.
Molecule B13 registered an EC50 of 0.32 nM.
On to B14, for which a half-maximal response (EC50) required 0.129 nM.
On to B15, for which the EC50 worked out at 0.153 nM.
In turn, B16 had a concentration for a half-maximal effect (EC50) of 0.113 nM.
Same read-out and setting: in the case of B17 it was 0.127 nM.
For the molecule B18, it took 0.08 nM to reach a half-maximal effect (EC50).
On the same count and under the same terms, the figure for B19 is 0.193 nM; for B20 it is 0.12 nM; for B21 it is 0.189 nM.
The same measure, in the same setting: in the case of B22 it was 0.227 nM.
